Test results reported in doi:10.1101/351726.

Key:
[1] = molecular target: full-length MyD88 fused to GFP at the N-terminus (human) (UniProt Q99836); assay: single-molecule fluorescence brightness analysis
[2] = molecular target: full-length MyD88 fused to GFP at the N-terminus (human) (UniProt Q99836); assay: photon counting histogram

- Kd [1]: 120 nM
- stoichiometry N [1]: > 80 GFP
- stoichiometry N [2]: > 100 proteins
Substance: full-length MyD88 fused to GFP at the N-terminus (from UniProt Q99836 1-296) (natural protein)
